Laboratory results reported in patent US20030211469A1, “Inhibiting hepatitis c virus processing and replication” (priority 2003, published 2003).

Molecular target: NS2/3 (810-1615BK): HCV residues 810-1615 of the BK strain, all of NS2 and most of NS3 (Hepatitis C virus, BK strain) (UniProt P26663)
Test: co-immunoprecipitation with anti-HSP90 mAb 3G3; NS2/3 synthesized in reticulocyte lysate with or without 10 µM geldanamycin (small molecule)

Chain of UniProt P26663 (P26663 810-1615): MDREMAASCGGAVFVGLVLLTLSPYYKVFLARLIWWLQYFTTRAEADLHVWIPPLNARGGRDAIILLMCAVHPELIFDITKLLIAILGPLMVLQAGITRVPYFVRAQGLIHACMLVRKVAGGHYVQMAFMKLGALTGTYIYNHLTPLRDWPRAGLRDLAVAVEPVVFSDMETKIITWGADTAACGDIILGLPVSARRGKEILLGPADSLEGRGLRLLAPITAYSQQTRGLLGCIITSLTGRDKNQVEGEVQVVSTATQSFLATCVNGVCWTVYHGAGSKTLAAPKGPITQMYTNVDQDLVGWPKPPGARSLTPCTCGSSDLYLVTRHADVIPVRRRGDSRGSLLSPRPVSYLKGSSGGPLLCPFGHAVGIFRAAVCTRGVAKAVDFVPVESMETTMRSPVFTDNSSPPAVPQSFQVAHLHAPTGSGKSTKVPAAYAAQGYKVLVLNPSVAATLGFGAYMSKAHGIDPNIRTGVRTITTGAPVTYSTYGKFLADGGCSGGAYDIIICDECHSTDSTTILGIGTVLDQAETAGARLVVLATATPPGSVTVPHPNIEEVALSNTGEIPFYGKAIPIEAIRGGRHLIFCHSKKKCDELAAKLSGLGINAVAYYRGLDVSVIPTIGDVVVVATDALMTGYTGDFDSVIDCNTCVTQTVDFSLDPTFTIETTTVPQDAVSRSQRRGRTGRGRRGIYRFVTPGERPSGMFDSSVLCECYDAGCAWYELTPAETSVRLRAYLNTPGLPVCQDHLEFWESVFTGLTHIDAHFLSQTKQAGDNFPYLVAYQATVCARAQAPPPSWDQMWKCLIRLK

## heat shock protein 90 (HSP90) (from UniProt P30947 2-726)
  decrease of the amount of NS2/3 co-immunoprecipitated in the presence of 10 µM geldanamycin: 60%
